Residue numbers refer to the chain shown, from its start.
T1: human GIP receptor (hGIPr) (Homo sapiens, UniProt P48546)
T1 construct: expressed in transfected cells
T1 sequence (P48546 22-466): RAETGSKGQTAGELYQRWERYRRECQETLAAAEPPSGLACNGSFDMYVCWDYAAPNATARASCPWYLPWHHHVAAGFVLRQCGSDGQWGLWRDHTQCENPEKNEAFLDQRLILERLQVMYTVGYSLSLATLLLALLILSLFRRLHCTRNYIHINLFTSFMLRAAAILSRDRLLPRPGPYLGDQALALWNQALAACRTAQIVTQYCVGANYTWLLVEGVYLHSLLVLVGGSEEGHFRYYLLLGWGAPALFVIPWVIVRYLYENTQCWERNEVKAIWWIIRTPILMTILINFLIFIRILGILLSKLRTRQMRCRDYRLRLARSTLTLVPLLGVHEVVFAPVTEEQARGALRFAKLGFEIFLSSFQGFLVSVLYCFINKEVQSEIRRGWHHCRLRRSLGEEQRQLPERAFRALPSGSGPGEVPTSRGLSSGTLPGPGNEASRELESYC

B1: IP132 (protein)
chain: HGEGTFTSDVSSYLEGQAAKEFIAWLVKGGGGGGSGGGGSGGGGSGGGGSATHTCPPCPAPEF
modifications: /note=“Description of Artificial Sequence Synthetic Peptide-linker-hinge polypeptide”
B2: IP204: isolated polypeptide named in b21; sequence stands in a table not shown here (protein)
chain: HGEGTFISDYSIAMDKIHQQDFVNWLLAQKAAAGGSGSTASSGSGSATGGGGAATHTCPPCPAPEF
modifications: /note=“Description of Artificial Sequence Synthetic Peptide-linker-hinge polypeptide”
B3: IP224 (protein)
chain: YSEGTFTSDVSSYMERQAIDEFIAWLLGGGAAAGGSGSTASSGSGSATGGGGAATHTCPPCPAPEF
modifications: /note=“Description of Artificial Sequence Synthetic Peptide-linker-hinge polypeptide”
B4: IP176: Fc fusion, IgG1-TM, SEQ ID NO:143; agonist peptide YSEGTFTSDVSSYMERQAISEFIAWLLKGP (protein)
chain: B3 chain with D20S, G28K, G30P
modifications: also: Fc fusion, IgG1-TM
notes: agonist peptide YSEGTFTSDVSSYMERQAISEFIAWLLKGP
B5: IP197 (protein)
chain: YSEGTFTSDVSSYMERQAIDEFIAWLLAGAAAGGSGSTASSGSGSATGGGGAATHTCPPCPAPEF
modifications: /note=“Description of Artificial Sequence Synthetic Peptide-linker-hinge polypeptide”
B6: IP230 (protein)
chain: B5 chain with Y1H, S2G, M14L, R16G, I19A, D20K, L27V, A28K
modifications: /note=“Description of Artificial Sequence Synthetic Peptide-linker-hinge polypeptide”
B7: IP208: isolated polypeptide named in b21; sequence stands in a table not shown here (protein)
chain: B5 chain with M14L, R16G, I19A, D20K
modifications: /note=“Description of Artificial Sequence Synthetic Peptide-linker-hinge polypeptide”
B8: IP171: Fc fusion, IgG1-TM, SEQ ID NO:142; agonist peptide YSEGTFTSDVSSYMERQAISEFIAWLLAG (protein)
chain: B5 chain with D20S
modifications: also: Fc fusion, IgG1-TM
notes: agonist peptide YSEGTFTSDVSSYMERQAISEFIAWLLAG
B9: IP173: isolated polypeptide named in b21; sequence stands in a table not shown here (protein)
chain: B5 chain with M14L, R16E, I19A, D20K
modifications: /note=“Description of Artificial Sequence Synthetic Peptide-linker-hinge polypeptide”
B10: IP150: isolated polypeptide named in b21; sequence stands in a table not shown here (protein)
chain: B3 chain with M14L, R16G, I19A, D20K, L27V, G28A, A32P, A33P
modifications: /note=“Description of Artificial Sequence Synthetic Peptide-linker-hinge polypeptide”
B11: IP174: isolated polypeptide named in b21; sequence stands in a table not shown here (protein)
chain: HGEGTFTSDVSSYLEEEAAKEFIAWLVAGGAAAGGSGSTASSGSGSATGGGGAATHTCPPCPAPEF
modifications: /note=“Description of Artificial Sequence Synthetic Peptide-linker-hinge polypeptide”
B12: IP187 (protein)
chain: HGEGTFTSDVSSYLEGQAAKEFIAWLVKGAPPGGGGGSGGGGSGGGGSGGGGSATHTCPPCPAPEF
modifications: /note=“Description of Artificial Sequence Synthetic Peptide-linker-hinge polypeptide”
B13: IP191 (protein)
chain: HGEGTFTSDVSSYLEGQAAKEFIAWLVKGAAAGGSGSTASSGSGSATGGGGAATYTCPPCPAPEF
modifications: /note=“Description of Artificial Sequence Synthetic Peptide-linker-hinge polypeptide”
B14: IP192 (protein)
chain: B13 chain with Y55S
modifications: /note=“Description of Artificial Sequence Synthetic Peptide-linker-hinge polypeptide”
B15: IP227 (protein)
chain: B3 chain with I23V, A24N, W25D, G28K
modifications: /note=“Description of Artificial Sequence Synthetic Peptide-linker-hinge polypeptide”
B16: IP199: isolated polypeptide named in b21; sequence stands in a table not shown here (protein)
chain: B13 chain with V27L, K28A, Y55H
modifications: /note=“Description of Artificial Sequence Synthetic Peptide-linker-hinge polypeptide”
B17: IP233 (protein)
chain: B13 chain with G16E, Y55H
modifications: /note=“Description of Artificial Sequence Synthetic Peptide-linker-hinge polypeptide”
B18: IP194 (protein)
chain: HGEGTFTSDVSSYLEGQAAKEFIAWLVKGAAAGGSGSTASSGSGSATGGGGPPCPPCPAPEF
modifications: /note=“Description of Artificial Sequence Synthetic Peptide-linker-hinge polypeptide”
B19: IP195 (protein)
chain: HGEGTFTSDVSSYLEGQAAKEFIAWLVKGAAAGGSGSTASSGSGSATGGGGESKYGPPCPPCPAPEF
modifications: /note=“Description of Artificial Sequence Synthetic Peptide-linker-hinge polypeptide”

Target: T1, human GIP receptor (hGIPr)
Assay: BSA-cAMP assay, cells expressing human GIP receptor
Format: cell-based
Conditions: BSA-cAMP assay; batch 1 unless a batch is given; read-out: cAMP activity hGIPr (EC50)
Procedure: For human GIPr, two different lines were used, shown as “hGIPr” and “hGIPr (C3)” in Table 11.
(§1) One basic cAMP assays was performed, differing in the medium used for the assay, the “BSA-cAMP assay”:
(§2) BSA-based assay medium: 0.1% bovine serum albumin (BSA) in
(§3) In certain aspects, the assay can also be carried out in medium supplemented with serum albumin that corresponds to the receptor being tested, e.g., human serum albumin for testing cAMP activity at hGIPr or hGLP-1r, rat serum albumin for testing cAMP activity at rGIPr or rGLP-1r, and so on. […] All sample dilutions were made in duplicate.
(§4) A frozen cryo-vial of cells expressing the receptor of interest was thawed rapidly in a water-bath, transferred to pre-warmed assay media and spun at 240×g for 5 minutes. Cells were re-suspended in assay buffer at an optimized concentration (e.g., hGLP-1r and hGIPr cells at 0.5×10^5 cells/ml).
(§5) To this, 5 μL cell suspension was added and the plates incubated at room temperature for 30 minutes.
(§6) cAMP levels were measured using a commercially available cAMP dynamic 2 HTRF kit (Cisbio, Cat #62AM4PEJ), following the two step protocol as per manufacturer's recommendations. In brief; anti-cAMP cryptate (donor fluorophore) and cAMP-d2 (acceptor fluorophore) were made up separately by diluting each 1/20 in conjugate & lysis buffer provided in the kit. 5 μL anti-cAMP cryptate was added to all wells of the assay plate, and 5 μL cAMP-d2 added to all wells except non-specific binding (NSB) wells, to which conjugate and lysis buffer was added. […] Data was transformed to % Delta F as described in manufacturer's guidelines and then transformed to percent activation of maximal native agonist response and analysed by 4-parameter logistic fit to determine EC50 values.
(§7) We used unconstrained 4 parameter logistic fit of data, curve mid-point to determine EC50. This was tested on two occasions, not two batches.

Going from B1 to B2, the EC50 falls from 81 nM to 0.12 nM (680-fold). The second is the more potent here.

B3 and B4 are within 1.5-fold of each other in EC50: 0.35 nM for the first, 0.42 nM for the second.

Compared with B5, B6 is higher in EC50: 0.18 nM for the first, > 15000 nM for the second.

First: B7
Second: B8
The EC50 of the first is 44-fold higher: 17 nM for the first, 0.39 nM for the second.

Compared with B9, B10 is 13-fold higher in EC50: 1.2 nM for the first, 16 nM for the second. The first is the more potent here.

B11 and B12 are within 1.5-fold of each other in EC50: 460 nM for the first, 540 nM for the second.

Target: T2, human GLP-1 receptor (hGLP-1r) (Homo sapiens, UniProt P43220)
T2 construct: expressed in transfected cells
Assay: BSA-cAMP assay, cells expressing human GLP-1 receptor
Format: cell-based
Conditions: BSA-cAMP assay; batch 1 unless a batch is given; read-out: cAMP activity hGLP1r (EC50)
Procedure: as §1, §2, §3, §4, §5, §6, §7

T2 sequence (P43220 24-463): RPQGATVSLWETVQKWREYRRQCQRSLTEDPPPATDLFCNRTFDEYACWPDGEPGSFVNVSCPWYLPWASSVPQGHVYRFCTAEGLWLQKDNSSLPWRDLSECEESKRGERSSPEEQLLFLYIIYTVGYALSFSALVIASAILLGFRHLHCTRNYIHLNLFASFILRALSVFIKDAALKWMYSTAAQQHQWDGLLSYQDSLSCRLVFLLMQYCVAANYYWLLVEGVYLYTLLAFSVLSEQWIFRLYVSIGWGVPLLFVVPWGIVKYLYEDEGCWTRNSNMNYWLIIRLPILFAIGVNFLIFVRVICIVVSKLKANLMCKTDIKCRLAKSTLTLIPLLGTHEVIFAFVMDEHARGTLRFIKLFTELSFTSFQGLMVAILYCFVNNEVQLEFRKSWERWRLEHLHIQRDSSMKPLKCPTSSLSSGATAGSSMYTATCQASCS

In order of rising EC50:
1. B11  0.032 nM
2. B10  0.033 nM
3. B17  0.036 nM
4. B12  0.037 nM
5. B1  0.04 nM
6. B14  0.043 nM
7. B6  0.056 nM
8. B13  0.057 nM
9. B18  0.061 nM
10. B19  0.061 nM
11. B16  0.069 nM
12. B9  0.23 nM
13. B8  0.53 nM
14. B3  0.57 nM
15. B4  0.6 nM
16. B5  0.78 nM
17. B7  1.6 nM
18. B15  48 nM
19. B2  850 nM

Reference: patent US20160185837A1 (Medimmune Limited, priority 2013, published 2016)
